Biological target: GLP-1 receptor (UniProt P32301)
Assay: cell-based or functional assay

Substance	Cyclase GLP-1 Receptor EC50 [nM]
dAla^2,Pro^3,Leu^14,Phe^25-exendin-4 (1-28) amide (from UniProt P26349) (peptide)	0.029
dAla^2,Pro^3-exendin-4 amide (from UniProt P26349 48-86) (peptide)	0.004

— US20120046222A1
